# Assay results from patent publication US20050064507.
# What was measured:
# [1] = test system: T1, peptide AYIERMNSIHRDLRA (SEQ ID NO:37)
# T1 sequence: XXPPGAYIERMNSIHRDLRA
# [2] = test system: T2, NIK peptide TEGKMARVAWKGKRRSKARK (SEQ ID NO:164)
# T2 sequence: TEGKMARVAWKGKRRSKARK
# [3] = test system: T3, p47phox peptide QAQRQIKRGAPPRRSSIRNA (SEQ ID NO:146)
# T3 sequence: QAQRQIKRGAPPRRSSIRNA
# [4] = test system: T4, SMARCA5 peptide MAQIERGEARIQRRISIKKA (SEQ ID NO:166)
# T4 sequence: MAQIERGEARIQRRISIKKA
# [5] = test system: T5, peptide HERKGSDKRGDNQ (SEQ ID NO:70)
# T5 sequence: XXPPGHERKGSDKRGDNQ
# [6] = test system: T6, PSCDBP peptide LSSMFGTLPRKSRKGSVRKQ (SEQ ID NO:144)
# T6 sequence: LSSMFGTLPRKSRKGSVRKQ
# [7] = test system: T7, NMDAR1 peptide RAITSTLASSFKRRR (SEQ ID NO:122)
# T7 sequence: RAITSTLASSFKRRR
# [8] = test system: T8, SDPR peptide EKIKRSSLKKVDSLKK (SEQ ID NO:104)
# T8 sequence: EKIKRSSLKKVDSLKK
# [9] = test system: T9, pleckstrin 1 peptide KAIKAIEGGQKFARKSTRRS (SEQ ID NO:126)
# T9 sequence: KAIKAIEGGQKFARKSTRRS
# [10] = test system: T10, PSCD2 peptide AARKKRISVKKKQEQ (SEQ ID NO:93)
# T10 sequence: AARKKRISVKKKQEQ
# [11] = test system: T11, AF15q14 peptide GFLNEPLSSKSQRRKSLKLK (SEQ ID NO:132)
# T11 sequence: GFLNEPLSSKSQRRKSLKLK
# [12] = test system: T12, ARHGAP6 peptide SAQITIPKDGQKRKKSLRKK (SEQ ID NO:156)
# T12 sequence: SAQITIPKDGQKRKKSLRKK
# [13] = test system: T13, ARHGAP6 peptide DGQKRKKSLRKKLD (SEQ ID NO:92)
# T13 sequence: DGQKRKKSLRKKLD
# [14] = test system: T14, DGKZ peptide KKKKRASFKRKSSKKG (SEQ ID NO:77)
# T14 sequence: KKKKRASFKRKSSKKG
# [15] = test system: T15, peptide NRKKKRTSFKRKA (SEQ ID NO:3)
# T15 sequence: XXPPGNRKKKRTSFKRKA
# [16] = test system: T16, ERN1 peptide ISDFGLAKKLAVGRHSFSRR (SEQ ID NO:145)
# T16 sequence: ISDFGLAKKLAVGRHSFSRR
# [17] = test system: T17, peptide AGSFKRNSIKKIV (SEQ ID NO:19)
# T17 sequence: XXPPGAGSFKRNSIKKIV
# [18] = test system: T18, dag kinase iota peptide PQNSLKASNRKKKRTSFKRK (SEQ ID NO:151)
# T18 sequence: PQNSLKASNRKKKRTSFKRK
# [19] = test system: T19, MARCKS peptide KKRFSFKKSFKLSGFSFKKN (SEQ ID NO:123)
# T19 sequence: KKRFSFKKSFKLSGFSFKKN
# [20] = test system: T20, NCF1 peptide GAPPRRSSIRNAH (SEQ ID NO:101)
# T20 sequence: GAPPRRSSIRNAH
# [21] = test system: T21, peptide QKRHARVTVKYDRRE (SEQ ID NO:23)
# T21 sequence: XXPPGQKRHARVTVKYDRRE
# [22] = test system: T22, peptide GAPPRRSSIRNAH (SEQ ID NO:20)
# T22 sequence: XXPPGGAPPRRSSIRNAH
# [23] = test system: T23, PKD1 peptide RVVQSVKHTKRKSSTVMK (SEQ ID NO:149)
# T23 sequence: RVVQSVKHTKRKSSTVMK
# [24] = test system: T24, p164-RhoGEF peptide PRLIRRGSKKRPAR (SEQ ID NO:124)
# T24 sequence: PRLIRRGSKKRPAR
# [25] = test system: T25, peptide VQQLLRSSNRRLEQL (SEQ ID NO:49)
# T25 sequence: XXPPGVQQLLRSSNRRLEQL
# [26] = test system: T26, peptide KLAVGRHSFSRRSGV (SEQ ID NO:21)
# T26 sequence: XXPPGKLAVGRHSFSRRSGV
# [27] = test system: T27, peptide KKRFSFKKSFKLSGFSFKKN (SEQ ID NO:18)
# T27 sequence: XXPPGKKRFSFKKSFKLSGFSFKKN
# [28] = test system: T28, peptide RKNDRKKRYTVVGNP (SEQ ID NO:29)
# T28 sequence: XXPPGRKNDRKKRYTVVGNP
# [29] = test system: T29, DGKI peptide NRKKKRTSFKRKA (SEQ ID NO:79)
# T29 sequence: NRKKKRTSFKRKA
# [30] = test system: T30, MYBPC3 peptide LLKKRDSFRTPRDSKLE (SEQ ID NO:103)
# T30 sequence: LLKKRDSFRTPRDSKLE
# [31] = test system: T31, peptide NMEAKKLSKDRMKKY (SEQ ID NO:40)
# T31 sequence: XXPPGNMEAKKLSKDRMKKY
# [32] = test system: T32, plectin peptide PLKEKKRERKTSSKSSVRKR (SEQ ID NO:125)
# T32 sequence: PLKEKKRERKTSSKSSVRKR
# [33] = test system: T33, peptide EARLGAASLKFGARD (SEQ ID NO:56)
# T33 sequence: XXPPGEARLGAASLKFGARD
# [34] = test system: T34, PRKCA peptide RFARKGSLRQKNV (SEQ ID NO:85)
# T34 sequence: RFARKGSLRQKNV
# [35] = test system: T35, NF1 peptide SQVQKQRSAGSFKRNSIKKI (SEQ ID NO:127)
# T35 sequence: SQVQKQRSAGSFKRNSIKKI
# [36] = test system: T36, PPP1R14A peptide QKRHARVTVKYDRRE (SEQ ID NO:107)
# T36 sequence: QKRHARVTVKYDRRE
# [37] = test system: T37, MARCKS peptide KKKRFSFKKSFKLSGFSFKK (SEQ ID NO:111)
# T37 sequence: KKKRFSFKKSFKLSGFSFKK
# [38] = test system: T38, ankyrin R peptide DLIEGRKGAQIVKRASLKRG (SEQ ID NO:152)
# T38 sequence: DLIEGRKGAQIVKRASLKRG
# [39] = test system: T39, peptide LALTARESSVRSGGAG (SEQ ID NO:69)
# T39 sequence: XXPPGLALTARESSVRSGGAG
substance,measurement,setting,value
PKC-delta,in vitro phosphorylation (% of best substrate),[1],3
same,"in vitro phosphorylation, 1 uM peptide (% of best substrate)",[2],18
same,"in vitro phosphorylation, 10 uM peptide (% of best substrate)",[2],26
same,"in vitro phosphorylation, 1 uM peptide (% of best substrate)",[3],33
same,"in vitro phosphorylation, 10 uM peptide (% of best substrate)",[3],14
same,"in vitro phosphorylation, 1 uM peptide (% of best substrate)",[4],13
same,"in vitro phosphorylation, 10 uM peptide (% of best substrate)",[4],29
same,in vitro phosphorylation (% of best substrate),[5],1
same,"in vitro phosphorylation, 1 uM peptide (% of best substrate)",[6],35
same,"in vitro phosphorylation, 10 uM peptide (% of best substrate)",[6],28
same,"in vitro phosphorylation, 1 uM peptide (% of best substrate)",[7],55
same,"in vitro phosphorylation, 10 uM peptide (% of best substrate)",[7],24
same,in vitro phosphorylation (% of best substrate),[8],10
same,"in vitro phosphorylation, 1 uM peptide (% of best substrate)",[9],47
same,"in vitro phosphorylation, 10 uM peptide (% of best substrate)",[9],43
same,in vitro phosphorylation (% of best substrate),[10],35
same,"in vitro phosphorylation, 1 uM peptide (% of best substrate)",[11],41
same,"in vitro phosphorylation, 10 uM peptide (% of best substrate)",[11],47
same,"in vitro phosphorylation, 1 uM peptide (% of best substrate)",[12],29
same,"in vitro phosphorylation, 10 uM peptide (% of best substrate)",[12],31
same,in vitro phosphorylation (% of best substrate),[13],17
same,in vitro phosphorylation (% of best substrate),[14],76
same,in vitro phosphorylation (% of best substrate),[15],66
same,"in vitro phosphorylation, 1 uM peptide (% of best substrate)",[16],34
same,"in vitro phosphorylation, 10 uM peptide (% of best substrate)",[16],23
same,in vitro phosphorylation (% of best substrate),[17],14
same,"in vitro phosphorylation, 1 uM peptide (% of best substrate)",[18],27
same,"in vitro phosphorylation, 10 uM peptide (% of best substrate)",[18],37
same,"in vitro phosphorylation, 1 uM peptide (% of best substrate)",[19],45
same,"in vitro phosphorylation, 10 uM peptide (% of best substrate)",[19],22
same,in vitro phosphorylation (% of best substrate),[20],13
same,in vitro phosphorylation (% of best substrate),[21],10
same,in vitro phosphorylation (% of best substrate),[22],13
same,"in vitro phosphorylation, 1 uM peptide (% of best substrate)",[23],20
same,"in vitro phosphorylation, 10 uM peptide (% of best substrate)",[23],17
same,"in vitro phosphorylation, 1 uM peptide (% of best substrate)",[24],69
same,"in vitro phosphorylation, 10 uM peptide (% of best substrate)",[24],43
same,in vitro phosphorylation (% of best substrate),[25],2
same,in vitro phosphorylation (% of best substrate),[26],12
same,in vitro phosphorylation (% of best substrate),[27],16
same,in vitro phosphorylation (% of best substrate),[28],8
same,in vitro phosphorylation (% of best substrate),[29],66
same,in vitro phosphorylation (% of best substrate),[30],12
same,in vitro phosphorylation (% of best substrate),[31],3
same,"in vitro phosphorylation, 1 uM peptide (% of best substrate)",[32],46
same,"in vitro phosphorylation, 10 uM peptide (% of best substrate)",[32],36
same,in vitro phosphorylation (% of best substrate),[33],2
same,in vitro phosphorylation (% of best substrate),[34],34
same,"in vitro phosphorylation, 1 uM peptide (% of best substrate)",[35],52
same,"in vitro phosphorylation, 10 uM peptide (% of best substrate)",[35],33
same,in vitro phosphorylation (% of best substrate),[36],10
same,in vitro phosphorylation (% of best substrate),[37],16
same,"in vitro phosphorylation, 1 uM peptide (% of best substrate)",[38],35
same,"in vitro phosphorylation, 10 uM peptide (% of best substrate)",[38],18
same,in vitro phosphorylation (% of best substrate),[39],1
